Three substances from publication PMC5344674 can be followed below.

What is called stoichiometry N is the number of molecules, sites or subunits per partner or assembly.

Experiment [1] has as its target Orsay virus mini-fusion protein CP-δ(215–485) (Orsay virus). Kind of experiment: SEC; Superdex 200 gel filtration; elution buffer 50 mM Tris-HCl pH 7.5, 250 mM NaCl, 2-ME, 1 mM NaN3. (In gel filtration, larger molecules generally elute earlier.)
Experiment [2] addresses Orsay virus full-length δ protein (Orsay virus). The experiment in a line: AUC; sedimentation velocity, 27.6 μM δ, 20°C, 30,000 rpm, 50 mM TRIS pH 7.5, 250 mM NaCl; PCSA-DS molar mass transformation.
For experiment [3] the target is unchanged. The experiment in a line: native MS; direct infusion by nano-spray, 10ug/mL protein complex in 5% ACN, 0.1% FA, Orbitrap Fusion Lumos; non-denaturing conditions; intact pentamer.
Experiment [4] deals with Orsay virus δ(1–66) (Orsay virus). Kind of experiment: crystal structure; hanging-drop vapor diffusion at 20°C; SAD with SeMet crystals, refined against native data at 2.22 Å.

In the case of “Orsay virus mini-fusion protein CP-δ(215–485) (domain or fragment)”, in experiment [1], the stoichiometry N stood at 5. Take “Orsay virus full-length δ protein (natural protein)”: the stoichiometry N in experiment [2] and in experiment [3] was 5 in each case.

In turn, “Orsay virus δ(1–66) (domain or fragment)” yielded a stoichiometry N in experiment [4] of 5.
